# According to PMC8229176:
# pEC50: −log10 of the molar value.
# Biological target: ACE2 on ACE2-transfected HEK293 cells (UniProt Q9BYF1)
# Experiment: flow cytometry on cells
# Chain of UniProt Q9BYF1 (Q9BYF1 18-805): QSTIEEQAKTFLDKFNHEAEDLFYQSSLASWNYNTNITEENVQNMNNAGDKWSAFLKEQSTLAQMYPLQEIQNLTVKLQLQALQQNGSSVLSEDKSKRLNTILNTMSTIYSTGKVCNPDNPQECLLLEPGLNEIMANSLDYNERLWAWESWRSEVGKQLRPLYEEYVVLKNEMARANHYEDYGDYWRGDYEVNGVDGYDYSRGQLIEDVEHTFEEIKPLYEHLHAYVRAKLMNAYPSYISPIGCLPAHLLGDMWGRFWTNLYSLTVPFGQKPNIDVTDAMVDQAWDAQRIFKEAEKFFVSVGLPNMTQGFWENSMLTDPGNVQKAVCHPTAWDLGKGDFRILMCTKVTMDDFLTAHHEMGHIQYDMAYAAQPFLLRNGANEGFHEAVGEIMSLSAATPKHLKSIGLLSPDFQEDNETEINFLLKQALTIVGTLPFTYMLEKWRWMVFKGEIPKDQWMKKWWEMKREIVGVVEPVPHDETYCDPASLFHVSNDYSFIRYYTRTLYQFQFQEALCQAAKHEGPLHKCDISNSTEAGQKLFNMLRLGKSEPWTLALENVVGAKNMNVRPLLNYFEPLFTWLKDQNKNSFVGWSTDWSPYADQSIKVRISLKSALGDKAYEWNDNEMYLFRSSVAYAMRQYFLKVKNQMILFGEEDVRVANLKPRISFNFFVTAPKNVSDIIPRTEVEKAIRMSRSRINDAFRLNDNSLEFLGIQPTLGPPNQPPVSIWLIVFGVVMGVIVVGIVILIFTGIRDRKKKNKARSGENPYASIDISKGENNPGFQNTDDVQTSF
substance,measurement,value
"SARS-CoV-2 spike protein receptor-binding domain (RBD), His6-tagged (domain or fragment)",pEC50,7.31
